Source: paper PMC9144876 (Protein Science : A Publication of the Protein Society, 2022)

Molecular target: extracellular domain of SARS‐CoV‐2 spike protein (ECD) (SARS‐CoV‐2, UniProt P0DTC2 14-1213)
Assay: ELISA

B1: h‐deface2 (designed binder)
chain: EFHGPSWCLTPADRGLCRANENRFYYNSVIGKCRPFKYSGCGGNENNFTSKDKCLHECKKG
B1 was tested, and the Kd was 54.4 nM.
